Test results: patent US20130224246A1

How the values were obtained:
[1] = target: MBP-LEL113-201, maltose-binding protein linked to the CD81 large extracellular loop between residues 113 to 201 (UniProt P60033); assay: EIA: E2661-his on coated MBP-LEL113-201, detected with anti-His
[2] = target: MBP-LEL113-201, maltose-binding protein linked to the CD81 large extracellular loop between residues 113 to 201 (UniProt P60033); assay: EIA: HCVpp lysate on coated MBP-LEL113-201, detected with H53

Sequence of MBP-LEL113-201, maltose-binding protein linked to the CD81 large extracellular loop between residues 113 to 201 (P60033 113-201 limits assumed): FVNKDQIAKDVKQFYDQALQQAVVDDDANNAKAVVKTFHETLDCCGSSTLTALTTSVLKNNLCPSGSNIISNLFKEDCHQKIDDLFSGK

E2661-his C452A/C459A (from UniProt P27958 384-661)
% of WT CD81-LEL binding activity retained [1]: 40% | decrease in CD81 binding activity [1]: 60%

E2661-his M+C459A (from UniProt P27958 384-661)
fold reduction in LEL binding [1]: 16 fold

HCVpp E2 C452A (from UniProt P27958 384-746)
CD81-binding function (reduced) [2]: 80%

HCVpp E2 C459A (from UniProt P27958 384-746)
CD81-binding function (reduced) [2]: 40%

HCVpp E2 C486A (from UniProt P27958 384-746)
% of WT LEL-binding activity retained [2]: 80%

HCVpp E2 C569A (from UniProt P27958 384-746)
reduction in CD81 binding ability [2]: 70%
